Assay results from publication PMC7216292, “A Multivalent ICAM-1 Binding Nanoparticle which Inhibits ICAM-1 and LFA-1 Interaction Represents a New Tool for the Investigation of Autoimmune-Mediated Dry Eye” (International Journal of Molecular Sciences, 2020).

B1: IBP-SI (ICAM-1 binding peptide fused to the diblock elastin-like polypeptide S48I48) (designed binder)
chain: MGFEGFSFLAFEDFVSSIGVPGSGVPGSGVPGSGVPGSGVPGSGVPGSGVPGSGVPGSGVPGSGVPGSGVPGSGVPGSGVPGSGVPGSGVPGSGVPGSGVPGSGVPGSGVPGSGVPGSGVPGSGVPGSGVPGSGVPGSGVPGSGVPGSGVPGSGVPGSGVPGSGVPGSGVPGSGVPGSGVPGSGVPGSGVPGSGVPGSGVPGSGVPGSGVPGSGVPGSGVPGSGVPGSGVPGSGVPGSGVPGSGVPGSGVPGSGVPGSGVPGIGVPGIGVPGIGVPGIGVPGIGVPGIGVPGIGVPGIGVPGIGVPGIGVPGIGVPGIGVPGIGVPGIGVPGIGVPGIGVPGIGVPGIGVPGIGVPGIGVPGIGVPGIGVPGIGVPGIGVPGIGVPGIGVPGIGVPGIGVPGIGVPGIGVPGIGVPGIGVPGIGVPGIGVPGIGVPGIGVPGIGVPGIGVPGIGVPGIGVPGIGVPGIGVPGIGVPGIGVPGIGVPGIGVPGIGVPGIGY
notes: N-terminal leader; residue between IBP and the ELP; Unlabelled form; also called IBI-SI; source: E. coli BLR(DE3), purified by ELP-mediated phase separation
B2: SI (diblock elastin-like polypeptide S48I48) (other)
chain: MGVPGSGVPGSGVPGSGVPGSGVPGSGVPGSGVPGSGVPGSGVPGSGVPGSGVPGSGVPGSGVPGSGVPGSGVPGSGVPGSGVPGSGVPGSGVPGSGVPGSGVPGSGVPGSGVPGSGVPGSGVPGSGVPGSGVPGSGVPGSGVPGSGVPGSGVPGSGVPGSGVPGSGVPGSGVPGSGVPGSGVPGSGVPGSGVPGSGVPGSGVPGSGVPGSGVPGSGVPGSGVPGSGVPGSGVPGSGVPGSGVPGIGVPGIGVPGIGVPGIGVPGIGVPGIGVPGIGVPGIGVPGIGVPGIGVPGIGVPGIGVPGIGVPGIGVPGIGVPGIGVPGIGVPGIGVPGIGVPGIGVPGIGVPGIGVPGIGVPGIGVPGIGVPGIGVPGIGVPGIGVPGIGVPGIGVPGIGVPGIGVPGIGVPGIGVPGIGVPGIGVPGIGVPGIGVPGIGVPGIGVPGIGVPGIGVPGIGVPGIGVPGIGVPGIGVPGIGVPGIGY
notes: N-terminal leader; also called parent SI; source: E. coli BLR(DE3), purified by ELP-mediated phase separation

Assays:
[1] = target: mouse ICAM-1 (endogenous) (mouse (endogenous in bEnd.3, NOD LGACs)) (UniProt P13597)
[2] = target: mouse ICAM-1 (endogenous) (mouse (endogenous in bEnd.3, NOD LGACs)) (UniProt P13597); remark: listed apart in the source
[3] = target: the molecule itself; assay: dynamic light scattering; 25 µM in PBS, pH 7.4, heated from 10 °C to 37 °C; assembly of monomers into nanoparticles above Tt1
[4] = target: mouse ICAM-1 (endogenous) (mouse (endogenous in bEnd.3, NOD LGACs), UniProt P13597 28-537); assay: cell-based or functional assay
Sequence of mouse ICAM-1 (endogenous) (P13597 28-537): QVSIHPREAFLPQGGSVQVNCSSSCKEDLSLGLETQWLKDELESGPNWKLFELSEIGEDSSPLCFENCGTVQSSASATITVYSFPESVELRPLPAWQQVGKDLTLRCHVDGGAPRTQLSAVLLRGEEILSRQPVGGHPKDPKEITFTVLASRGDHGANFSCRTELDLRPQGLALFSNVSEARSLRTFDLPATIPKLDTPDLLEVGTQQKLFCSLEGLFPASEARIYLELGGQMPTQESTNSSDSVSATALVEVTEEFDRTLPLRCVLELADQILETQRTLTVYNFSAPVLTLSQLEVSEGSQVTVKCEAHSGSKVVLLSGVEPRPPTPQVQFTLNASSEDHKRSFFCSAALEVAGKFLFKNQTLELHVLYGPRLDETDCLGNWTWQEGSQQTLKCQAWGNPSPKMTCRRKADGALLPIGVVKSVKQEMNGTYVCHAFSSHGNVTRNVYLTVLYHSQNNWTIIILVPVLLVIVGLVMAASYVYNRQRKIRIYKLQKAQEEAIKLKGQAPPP

Sequence of mouse ICAM-1 (endogenous) (mouse (endogenous in bEnd.3, NOD LGACs)) (P13597 28-537): as above

Row | Molecule | adhesion of fluorescently labelled splenocytes to TNF-α-induced bEnd.3 cells in the presence of 100 µM SI (negative control), percent of the control without ELP, plate reader [1] | splenocyte binding to TNF-α-induced bEnd.3 cells in the presence of 100 µM SI (negative control), percent of the control without ELP, flow cytometry [1] | proliferation of CFSE-labelled mouse CD4+ T-cells stimulated with MCC-loaded CH27 cells, in the presence of 100 µM SI (control), 5 days, percent of the untreated mixture [2] | binding result [3] | IC50 of inhibition of adhesion of PMA-activated, CFSE-labelled mouse splenocytes (LFA-1) to TNF-α-induced bEnd.3 cells (ICAM-1), flow cytometry, IBP-SI 10-150 µM, 45 min, 37 °C [4] | IC50 of inhibition of adhesion of PMA-activated, CFSE-labelled mouse splenocytes (LFA-1) to TNF-α-induced bEnd.3 cells (ICAM-1), fluorescence plate reader, IBP-SI 10-150 µM, 45 min, 37 °C [4]
1 | lymphocyte function-associated antigen-1 (LFA-1) (from UniProt P24063 24-1162; P11835 24-771) (receptor) | 76.2% | 86.9% | 91.2% |  |  | 
2 | B1 |  |  |  | binds | 62.7 µM | 81.2 µM
3 | B2 |  |  |  | binds |  | 
